Results on three substances are retold here after patent publication US20070111260A1.

Experiment [1] addresses FcγRIIIA-streptavidin fusion protein (human; Streptomyces avidinii) (UniProt P08637). Put plainly: ELISA: antibody captured on protein A/G, FcγRIIIA-streptavidin (1:1000), biotin-HRP; the text speaks of IC50 values.
Experiment [2] concerns the target FcγRI and FcγRII on THP-1 cells. Put plainly: flow cytometry, antibody on THP-1 cells, FITC anti-human IgG Fab.
The target in experiment [3] is human C1q (Quidel) (human) (UniProt P02745). Put plainly: ELISA: antibody captured on protein A/G, human C1q 2 ug/ml, anti-C1q detection.
human C1q (Quidel) (human), sequence (P02745 23-245, chain 1 of 3): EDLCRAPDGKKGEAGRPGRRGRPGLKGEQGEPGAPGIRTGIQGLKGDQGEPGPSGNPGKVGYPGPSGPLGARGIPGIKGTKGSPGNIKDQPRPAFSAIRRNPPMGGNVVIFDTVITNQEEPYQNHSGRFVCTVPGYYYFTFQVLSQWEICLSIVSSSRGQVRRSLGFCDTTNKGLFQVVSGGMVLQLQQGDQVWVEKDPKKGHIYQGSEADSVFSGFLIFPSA
human C1q (Quidel) (human), sequence (P02746 28-253, chain 2 of 3, further chain): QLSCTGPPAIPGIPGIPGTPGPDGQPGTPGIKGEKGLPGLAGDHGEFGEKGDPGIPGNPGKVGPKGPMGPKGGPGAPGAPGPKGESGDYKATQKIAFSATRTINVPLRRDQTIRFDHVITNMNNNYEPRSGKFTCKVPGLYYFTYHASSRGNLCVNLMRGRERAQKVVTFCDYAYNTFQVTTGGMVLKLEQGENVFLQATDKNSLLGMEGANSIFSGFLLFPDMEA
human C1q (Quidel) (human), sequence (P02747 29-245, chain 3 of 3, further chain): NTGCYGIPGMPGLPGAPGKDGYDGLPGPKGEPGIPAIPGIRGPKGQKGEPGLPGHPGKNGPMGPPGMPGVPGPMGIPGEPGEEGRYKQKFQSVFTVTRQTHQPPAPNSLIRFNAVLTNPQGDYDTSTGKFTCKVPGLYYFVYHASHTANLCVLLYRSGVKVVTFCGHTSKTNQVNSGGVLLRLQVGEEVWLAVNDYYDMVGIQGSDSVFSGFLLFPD

FcγRIIIA-streptavidin fusion protein (human; Streptomyces avidinii), sequence (P08637 17-208 limits assumed): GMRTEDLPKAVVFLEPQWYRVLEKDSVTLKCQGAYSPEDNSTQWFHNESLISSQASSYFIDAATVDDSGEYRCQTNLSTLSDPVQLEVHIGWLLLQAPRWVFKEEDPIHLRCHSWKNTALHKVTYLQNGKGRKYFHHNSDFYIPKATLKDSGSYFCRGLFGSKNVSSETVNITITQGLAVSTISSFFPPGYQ

For the substance “12G3H11 anti-EphA2 antibody Fc variant InE240/241 (soluble) (from UniProt P01857 1-330)”, the FcγRIIIA Binding in experiment [1] is 4.93 µg/mL.
Turning to “12G3H11 anti-EphA2 antibody Fc variant K246R/L251E/T260R (soluble)”, the FcγRI&II Binding (fold less, against wild type) in experiment [2] stood at 9 fold. In addition, the C1q binding (fold less, against wild type) in experiment [3] was 2 fold.
As for “12G3H11 anti-EphA2 antibody Fc variant W277T (soluble)”, in experiment [1], the FcγRIIIA Binding is 0.5 µg/mL.
